# Measured values as given in publication PMC9592559 (Structure(London, England:1993), 2022).
# B1: human TOP2B ATPase domain (45–444) (domain or fragment, UniProt Q02880-2 45-444, looked up)
# chain: SVERVYQKKTQLEHILLRPDTYIGSVEPLTQFMWVYDEDVGMNCREVTFVPGLYKIFDEILVNAADNKQRDKNMTCIKVSIDPESNIISIWNNGKGIPVVEHKVEKVYVPALIFGQLLTSSNYDDDEKKVTGGRNGYGAKLCNIFSTKFTVETACKEYKHSFKQTWMNNMMKTSEAKIKHFDGEDYTCITFQPDLSKFKMEKLDKDIVALMTRRAYDLAGSCRGVKVMFNGKKLPVNGFRSYVDLYVKDKLDETGVALKVIHELANERWDVCLTLSEKGFQQISFVNSIATTKGGRHVDYVVDQVVGKLIEVVKKKNKAGVSVKPFQVKNHIWVFINCLIENPTFDSQTKENMTLQPKSFGSKCQLSEKFFKAASNCGIVESILNWVKFKAQTQLNKKCS
# notes: Cloned by LIC into the pET His6 MBP Asn10 TEV LIC vector (1C), Addgene plasmid 29654; The models hold residues 46–429 (7QFO), 47–422 (7QFN) and 45–422 (7ZBG); not shown: His6, N-terminal, cleaved; MBP, N-terminal, cleaved
# Molecular target: the molecule itself
# Test: SEC; analytical gel filtration of TOP2B (45–444) in the presence and absence of AMPPNP
protein,measurement,value
B1,stoichiometry N,2
